These are literature values, as cited in PMC3144249.

Data set [1] deals with arrestin-1 dimer (Mus musculus) (UniProt P20443).
The target in data set [2] is arrestin-1 (Mus musculus) (UniProt P20443).

In general, Kd refers to the equilibrium constant for the complex coming apart. As for arrestin-1 dimer (from UniProt P20443), the Kd in data set [1] is 63.1 µM.

Turning to arrestin-1 (from UniProt P20443), the Kd in data set [2] is 57.5 µM.
